Article PMC5986008, “Intracellular free flavin and its associated enzymes participate in oxygen and iron metabolism in Amphibacillus xylanus lacking a respiratory chain” (FEBS Open Bio, 2018)

Tests used:
[1] = target: T1, NAD(P)H oxidoreductase (Npo) (Amphibacillus xylanus, UniProt K0J097); assay: spectral analysis of FMN released from the protein by […] SDS; assay type: binding; conditions: bound flavin cofactor, 1 mol FMN per subunit
T1 construct: recombinant from E. coli DE3, pET101 TOPO, reverse primer keeps native stop (primers encode N-terminus MAKDF, C-terminus CENFK); 23 kDa; 1 mol FMN per subunit
T1 sequence (K0J097 1-199): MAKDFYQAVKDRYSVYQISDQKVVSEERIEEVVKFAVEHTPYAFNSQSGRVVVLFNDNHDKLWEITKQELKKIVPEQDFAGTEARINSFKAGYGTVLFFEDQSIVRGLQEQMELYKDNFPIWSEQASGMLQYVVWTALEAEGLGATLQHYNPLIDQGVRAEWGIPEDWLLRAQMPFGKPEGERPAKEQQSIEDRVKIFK

[2] = target: T1, NAD(P)H oxidoreductase (Npo); assay: NADPH oxidation kinetics (details not told); assay type: biochemical; conditions: only an upper bound printed; conditions of this determination not told
purified protein = substrate: Cc1cc2nc3c(=O)[nH]c(=O)nc-3n(C[C@H](O)[C@H](O)[C@H](O)COP(=O)(O)OP(=O)(O)OC[C@H]3O[C@@H](n4cnc5c(N)ncnc54)[C@H](O)[C@@H]3O)c2cc1C; assay: purified protein; assay type: biochemical, Amphibacillus xylanus; conditions: 50 mM sodium phosphate pH 7.0, 0.5 mM EDTA, 25 °C, FAD 15-150 μM as free substrate

Cc1cc2nc3c(=O)[nH]c(=O)nc-3n(C[C@H](O)[C@H](O)[C@H](O)COP(=O)(O)O)c2cc1C [FMN]
spectral analysis of FMN released from the protein by 0.1% SDS [1]: spectral analysis of free FMN, which was released from Npo protein

NC(=O)C1=CN([C@@H]2O[C@H](COP(=O)(O)OP(=O)(O)OC[C@H]3O[C@@H](n4cnc5c(N)ncnc54)[C@H](OP(=O)(O)O)[C@@H]3O)[C@@H](O)[C@H]2O)C=CC1 [NADPH]
Km [2]: < 33 µM

B1: NAD(P)H oxidoreductase (Npo) (Amphibacillus xylanus NBRC 15112) (protein)
chain: MAKDFYQAVKDRYSVYQISDQKVVSEERIEEVVKFAVEHTPYAFNSQSGRVVVLFNDNHDKLWEITKQELKKIVPEQDFAGTEARINSFKAGYGTVLFFEDQSIVRGLQEQMELYKDNFPIWSEQASGMLQYVVWTALEAEGLGATLQHYNPLIDQGVRAEWGIPEDWLLRAQMPFGKPEGERPAKEQQSIEDRVKIFK
notes: recombinant from E. coli DE3, pET101 TOPO, reverse primer keeps native stop (primers encode N-terminus MAKDF, C-terminus CENFK); 23 kDa; 1 mol FMN per subunit
Km (purified protein; 150 μM NADPH): 71 ± 10 µM | kcat (purified protein; 150 μM NADPH): 1 ± 0.1 s⁻¹ | kcat/Km (purified protein; 150 μM NADPH): 14000 ± 1000 M⁻¹ s⁻¹

B2: NADH oxidase (Nox) (Amphibacillus xylanus NBRC 15112) (protein)
chain: MLDKDIKQQLEQYLALLENDIVIKVSVGDDKVSKDTLELVNEIADMSSMISVEETTLERTPSFSINRKGEPDSGVVFAGIPLGHEFTSLVLALLQVSGRAPKVEASVIDAIKKVEGKHDFVTYVSLTCQNCPDVVQALNLMSVVNPNITHTMVEGSAFKDEVDRLNILAVPSVYLNGEFMASGRMTIEDILGHLGSGIDASELNEKDPFDVLVIGGGPAGASSAIYAARKGIRVGIIADRFGGQVMDTLGIENFIGTKYTEGPKLISEIEQHVNEYNIDVMKGLRAHNIEKKDLFEVQLDNGAVLKSKTIILATGARWRDIGVPGEKEYKNKGVAYCTHCDAPLFEGKHVAVVGGGNSGIESALDLAGIVKHVTVFEFMSELKADAVLQERLRSLPNVDVILNAQTTEITGDETVKGISYIDRTTNEEKHVELQGAFIQIGLAPNTEWLGDTVERNQIGEIVIDKKGQTSVPGIFAAGDCTDTPYKQIIVSMGAGATAALGAFDYLLRN
Km (purified protein; 150 μM NADH): 37 ± 3 µM | kcat (purified protein; 150 μM NADH): 91 ± 8 s⁻¹ | kcat/Km (purified protein; 150 μM NADH): 2.42e+06 ± 74000 M⁻¹ s⁻¹
